In US20020103123A1:
Ends that are not written are not given here.

Tests used:
[1] = biological target: T1, rat Y4 receptor (rat), Q63447; test: 125I-PYY displacement, COS-7 membranes; conditions: remark: other sources report otherwise
T1 chain: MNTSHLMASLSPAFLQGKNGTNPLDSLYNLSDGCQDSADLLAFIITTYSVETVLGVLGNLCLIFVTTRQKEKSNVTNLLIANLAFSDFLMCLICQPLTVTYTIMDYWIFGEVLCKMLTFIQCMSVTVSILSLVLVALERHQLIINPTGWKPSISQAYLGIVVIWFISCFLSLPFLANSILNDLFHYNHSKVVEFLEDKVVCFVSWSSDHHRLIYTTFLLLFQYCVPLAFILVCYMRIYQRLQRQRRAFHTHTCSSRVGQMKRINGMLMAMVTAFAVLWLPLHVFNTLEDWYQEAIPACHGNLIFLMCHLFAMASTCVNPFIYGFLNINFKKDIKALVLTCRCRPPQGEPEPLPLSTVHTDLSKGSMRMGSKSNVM

[2] = biological target: human hippocampal Y5 receptor (human)
Sequence of human hippocampal Y5 receptor (human) (chain, as listed by the source): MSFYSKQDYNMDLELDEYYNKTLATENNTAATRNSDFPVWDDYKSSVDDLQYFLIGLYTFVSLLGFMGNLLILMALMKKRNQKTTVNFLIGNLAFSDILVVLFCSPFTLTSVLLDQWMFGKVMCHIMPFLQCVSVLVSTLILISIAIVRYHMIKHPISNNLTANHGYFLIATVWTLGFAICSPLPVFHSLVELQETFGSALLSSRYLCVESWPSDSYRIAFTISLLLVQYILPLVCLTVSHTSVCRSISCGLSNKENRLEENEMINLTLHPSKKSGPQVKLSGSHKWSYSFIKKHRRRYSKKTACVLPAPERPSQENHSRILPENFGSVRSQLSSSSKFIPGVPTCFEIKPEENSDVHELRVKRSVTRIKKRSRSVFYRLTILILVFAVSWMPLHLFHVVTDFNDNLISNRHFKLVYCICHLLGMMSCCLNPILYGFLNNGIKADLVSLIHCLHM

[3] = biological target: T2, rat hypothalamic Y5 receptor (rat)
T2 sequence: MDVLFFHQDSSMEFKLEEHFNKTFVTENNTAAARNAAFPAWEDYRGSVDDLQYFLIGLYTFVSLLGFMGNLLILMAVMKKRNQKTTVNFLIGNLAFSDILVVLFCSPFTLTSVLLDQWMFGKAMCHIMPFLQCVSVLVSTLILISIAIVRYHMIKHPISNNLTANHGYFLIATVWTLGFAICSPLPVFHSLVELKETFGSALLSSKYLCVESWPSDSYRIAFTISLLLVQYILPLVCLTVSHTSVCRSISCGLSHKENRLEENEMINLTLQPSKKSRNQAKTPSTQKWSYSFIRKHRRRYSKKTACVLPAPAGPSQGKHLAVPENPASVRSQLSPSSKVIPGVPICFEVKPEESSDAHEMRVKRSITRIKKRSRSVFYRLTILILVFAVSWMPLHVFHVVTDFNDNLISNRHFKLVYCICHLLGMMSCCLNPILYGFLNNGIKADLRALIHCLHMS

[4] = biological target: T3, rat Y2 receptor (rat), Q9ERC0; test: 125I-PYY displacement, COS-7 membranes; conditions: remark: other sources report otherwise
T3 chain: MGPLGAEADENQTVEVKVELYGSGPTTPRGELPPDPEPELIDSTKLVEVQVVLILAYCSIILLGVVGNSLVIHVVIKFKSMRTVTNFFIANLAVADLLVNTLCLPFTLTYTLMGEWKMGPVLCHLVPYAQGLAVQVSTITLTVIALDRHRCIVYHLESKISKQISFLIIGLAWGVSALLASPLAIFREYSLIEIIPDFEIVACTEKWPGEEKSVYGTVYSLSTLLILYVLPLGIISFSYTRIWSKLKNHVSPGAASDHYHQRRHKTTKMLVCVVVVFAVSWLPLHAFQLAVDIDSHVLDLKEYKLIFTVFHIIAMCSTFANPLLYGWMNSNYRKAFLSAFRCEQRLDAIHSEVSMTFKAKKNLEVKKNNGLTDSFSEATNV

[5] = biological target: T2, rat hypothalamic Y5 receptor (rat); remark: listed apart in the source

B1: porcine NPY13-36, P01304 (peptide)
peptide: PAEDLARYYSALRHYINLITRQRY
modifications: ends and bridges not checked
For B1, the Ki [1] was 140 nM.

B2: bovine PP (peptide)
peptide: APLEPEYPGDNATPEQMAQYAAELRRYINMLTRPRY
In the case of B2, the inhibition of forskolin-stimulated cAMP accumulation, EC50 [2] is reported as 4 nM and the inhibition of forskolin-stimulated cAMP accumulation, EC50 [3] is reported as 5.7 nM.

B3: rat PP (peptide)
peptide: APLEPMYPGDYATHEQRAQYETQLRRYINTLTRPRY
B3 was tested, and the inhibition of forskolin-stimulated cAMP accumulation, EC50 [3] was 130 nM.

B4: porcine NPY26-36, P01304 (peptide)
peptide: HYINLITRQRY
modifications: ends and bridges not checked
In the case of B4, the Ki [4] is reported as > 830 nM.

B5: FLRF-amide (peptide)
peptide: FLRF-NH2
Work on B5 yielded a maximal suppression of cAMP relative to that produced by human NPY [5] of 42% and an inhibition of forskolin-stimulated cAMP accumulation, EC50 [3] of 13000 nM.
